Data: patent US20250011363A1, “OPTIMIZED SHORTENED PEPTIDE THAT BINDS TO ACETYLCHOLINE RECEPTOR, AND USE THEREOF” (SKINMED CO., LTD., priority 2021, published 2025)

What follows are substances tested against acetylcholine receptor (Homo sapiens, UniProt P02708) (assay: SPR binding affinity (RU) of optimized 5mer/6mer/7mer peptides, Examples 6-7). Conditions: SPR, peptides tested at 10 μM; 5mer Top sequence.
Chain of acetylcholine receptor (P02708 21-457): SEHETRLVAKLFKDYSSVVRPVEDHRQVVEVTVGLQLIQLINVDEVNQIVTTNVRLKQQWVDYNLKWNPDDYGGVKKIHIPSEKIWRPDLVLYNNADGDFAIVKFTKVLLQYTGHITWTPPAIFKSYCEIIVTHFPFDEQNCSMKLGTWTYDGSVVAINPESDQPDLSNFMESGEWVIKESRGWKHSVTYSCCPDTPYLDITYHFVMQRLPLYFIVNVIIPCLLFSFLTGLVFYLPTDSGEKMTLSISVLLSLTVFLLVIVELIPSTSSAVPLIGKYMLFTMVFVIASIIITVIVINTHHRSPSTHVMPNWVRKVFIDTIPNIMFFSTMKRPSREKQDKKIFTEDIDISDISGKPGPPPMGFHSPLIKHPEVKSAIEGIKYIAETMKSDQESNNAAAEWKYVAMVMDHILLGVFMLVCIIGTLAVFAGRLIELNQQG
Experimental: Based on the frequencies of occurrence of the top 7 amino acids from Table 7 in Example 5, 600 peptides comprising these amino acids (top combinations) and those comprising the 13 less frequently occurring amino acids (bottom combinations) were synthesized for each series of 5mer, 6mer-1, and 6mer-2. The binding affinity of each sequence for the acetylcholine receptor was measured using Surface Plasmon Resonance (SPR) analysis method. The peptides were tested at a concentration of 10 μM. Additionally, the average binding affinities of the top and bottom combinations in each series are depicted in FIGS. 5-7.
Representative peptides identified in Example 6, two in each library, including 5mers (73, 311) and 6mers-1 (43, 210) and 6mers-2 (136, 233), were compared with the pre-optimized 6mer, 5mer-ND, and Synake.
5mer-301 (KWIRK) gave a Binding affinity of 64 Ru.
In the case of 5mer-302 (RRILK), the Binding affinity is reported as 70 Ru.
5mer-303 (KGRYR) showed a Binding affinity of 87 Ru.
5mer-304 (RSVRK) was tested, and the Binding affinity was 76 Ru.
5mer-305 (KRICK) showed a Binding affinity of 72 Ru.
Substance 5mer-306 (KSYYR) has a Binding affinity of 74 Ru.
In the case of 5mer-307 (KQRCK), the Binding affinity is reported as 82 Ru.
5mer-308 (RLRCR) gave a Binding affinity of 84 Ru.
For 5mer-309 (KVQYR), the Binding affinity was 70 Ru.
Work on 5mer-310 (KSRQR) yielded a Binding affinity of 78 Ru.
In the case of 5mer-312 (KRYCR), the Binding affinity is reported as 81 Ru.
5mer-313 (RSQLK) showed a Binding affinity of 75 Ru.
For 5mer-314 (RWYTR), the Binding affinity was 80 Ru.
Substance 5mer-315 (KLFSR) has a Binding affinity of 77 Ru.
Substance 5mer-316 (KQYLR) has a Binding affinity of 73 Ru.
5mer-317 (RRVQR) was tested, and the Binding affinity was 86 Ru.
With 5mer-318 (KRVCK) the Binding affinity was 64 Ru.
5mer-319 (RVQTR) gave a Binding affinity of 74 Ru.
With 5mer-320 (RVVQR) the Binding affinity was 75 Ru.
Work on 5mer-321 (RSLSR) yielded a Binding affinity of 68 Ru.
For 5mer-322 (RRQSR), the Binding affinity was 84 Ru.
Substance 5mer-323 (KWYYR) has a Binding affinity of 77 Ru.
With 5mer-324 (KSQRR) the Binding affinity was 58 Ru.
5mer-325 (KRIQR) was tested, and the Binding affinity was 50 Ru.
In the case of 5mer-326 (RRFTK), the Binding affinity is reported as 68 Ru.
For 5mer-327 (RVLCR), the Binding affinity was 86 Ru.
5mer-328 (RWVLK) showed a Binding affinity of 61 Ru.
5mer-329 (RRFCR) was tested, and the Binding affinity was 79 Ru.
In the case of 5mer-330 (RWQLR), the Binding affinity is reported as 86 Ru.
With 5mer-331 (RGIQR) the Binding affinity was 79 Ru.
Work on 5mer-332 (RRYCR) yielded a Binding affinity of 85 Ru.
5mer-333 (RVLQR) gave a Binding affinity of 67 Ru.
Substance 5mer-334 (KRFYK) has a Binding affinity of 64 Ru.
In the case of 5mer-335 (KSLTR), the Binding affinity is reported as 56 Ru.
5mer-336 (KSVSR) was tested, and the Binding affinity was 83 Ru.
For 5mer-337 (KGRSR), the Binding affinity was 67 Ru.
With 5mer-338 (RWILR) the Binding affinity was 61 Ru.
In the case of 5mer-339 (KWVRK), the Binding affinity is reported as 87 Ru.
Substance 5mer-340 (KGYRR) has a Binding affinity of 51 Ru.
Work on 5mer-341 (RWYRR) yielded a Binding affinity of 52 Ru.
Substance 5mer-342 (KVYQR) has a Binding affinity of 69 Ru.
5mer-343 (KSFSR) was tested, and the Binding affinity was 60 Ru.
5mer-344 (KQFQR) showed a Binding affinity of 52 Ru.
With 5mer-345 (RQQRR) the Binding affinity was 86 Ru.
With 5mer-346 (KGISK) the Binding affinity was 57 Ru.
Substance 5mer-347 (KRICR) has a Binding affinity of 78 Ru.
5mer-348 (KRQTK) showed a Binding affinity of 80 Ru.
Work on 5mer-349 (KQVYR) yielded a Binding affinity of 50 Ru.
With 5mer-350 (KSYYK) the Binding affinity was 59 Ru.
Work on 5mer-351 (KSFSK) yielded a Binding affinity of 75 Ru.
With 5mer-352 (RLVRK) the Binding affinity was 76 Ru.
5mer-353 (KSQLK) was tested, and the Binding affinity was 59 Ru.
5mer-354 (RSQTR) gave a Binding affinity of 64 Ru.
5mer-355 (KLLYR) was tested, and the Binding affinity was 87 Ru.
In the case of 5mer-356 (KQVLR), the Binding affinity is reported as 65 Ru.
In the case of 5mer-357 (RGFRK), the Binding affinity is reported as 54 Ru.
Substance 5mer-358 (KVRSK) has a Binding affinity of 50 Ru.
5mer-359 (KRFQK) gave a Binding affinity of 79 Ru.
Substance 5mer-360 (RQLCK) has a Binding affinity of 66 Ru.
5mer-361 (RSYQR) gave a Binding affinity of 58 Ru.
5mer-362 (KQRLK) was tested, and the Binding affinity was 62 Ru.
Work on 5mer-363 (KRVRK) yielded a Binding affinity of 59 Ru.
With 5mer-364 (RWITR) the Binding affinity was 62 Ru.
In the case of 5mer-365 (KRRYK), the Binding affinity is reported as 52 Ru.
5mer-366 (RQLQK) was tested, and the Binding affinity was 52 Ru.
Substance 5mer-367 (RSVQK) has a Binding affinity of 71 Ru.
In the case of 5mer-368 (KRIRR), the Binding affinity is reported as 50 Ru.
For 5mer-369 (RGFTR), the Binding affinity was 84 Ru.
5mer-370 (KWRRK) showed a Binding affinity of 67 Ru.
With 5mer-371 (RGISK) the Binding affinity was 86 Ru.
With 5mer-372 (RSVCR) the Binding affinity was 54 Ru.
With 5mer-373 (KVFTK) the Binding affinity was 87 Ru.
Work on 5mer-374 (KLFTR) yielded a Binding affinity of 75 Ru.
For 5mer-375 (KQLCR), the Binding affinity was 84 Ru.
5mer-376 (KGQLR) gave a Binding affinity of 65 Ru.
Substance 5mer-377 (KGFYK) has a Binding affinity of 67 Ru.
In the case of 5mer-378 (RRLSK), the Binding affinity is reported as 65 Ru.
5mer-379 (KSRLR) was tested, and the Binding affinity was 79 Ru.
Work on 5mer-380 (KRYLK) yielded a Binding affinity of 82 Ru.
For 5mer-381 (KGQRR), the Binding affinity was 87 Ru.
5mer-382 (RLRQR) showed a Binding affinity of 62 Ru.
5mer-383 (RWQRK) showed a Binding affinity of 56 Ru.
In the case of 5mer-384 (KSLRK), the Binding affinity is reported as 75 Ru.
With 5mer-385 (RGVYR) the Binding affinity was 51 Ru.
In the case of 5mer-386 (RSFLK), the Binding affinity is reported as 78 Ru.
5mer-387 (RRILR) gave a Binding affinity of 52 Ru.
Substance 5mer-388 (KLFCK) has a Binding affinity of 78 Ru.
Substance 5mer-389 (KWRRR) has a Binding affinity of 57 Ru.
5mer-390 (KRFCR) gave a Binding affinity of 64 Ru.
In the case of 5mer-391 (KVFRR), the Binding affinity is reported as 72 Ru.
With 5mer-392 (RSRLR) the Binding affinity was 87 Ru.
Work on 5mer-393 (KSLQR) yielded a Binding affinity of 75 Ru.
Substance 5mer-394 (KRRRK) has a Binding affinity of 66 Ru.
For 5mer-395 (RWVCK), the Binding affinity was 50 Ru.
5mer-396 (KVVCR) showed a Binding affinity of 53 Ru.
Substance 5mer-397 (RRITK) has a Binding affinity of 52 Ru.
5mer-398 (KGQCR) showed a Binding affinity of 71 Ru.
For 5mer-399 (KWIQR), the Binding affinity was 62 Ru.
5mer-400 (RWRCK) gave a Binding affinity of 70 Ru.
Substance 5mer-401 (RGVLR) has a Binding affinity of 52 Ru.
5mer-402 (RLRYR) gave a Binding affinity of 86 Ru.
5mer-403 (RRLYK) was tested, and the Binding affinity was 64 Ru.
Work on 5mer-404 (KGYLK) yielded a Binding affinity of 83 Ru.
5mer-405 (KSYTK) showed a Binding affinity of 68 Ru.
For 5mer-406 (KVYLR), the Binding affinity was 84 Ru.
Substance 5mer-407 (RQIYK) has a Binding affinity of 58 Ru.
Substance 5mer-408 (KVFRK) has a Binding affinity of 74 Ru.
In the case of 5mer-409 (KQIYK), the Binding affinity is reported as 62 Ru.
In the case of 5mer-410 (RRFLR), the Binding affinity is reported as 76 Ru.
Substance 5mer-411 (KGRLR) has a Binding affinity of 66 Ru.
Work on 5mer-412 (RGRSR) yielded a Binding affinity of 81 Ru.
With 5mer-413 (RWLTR) the Binding affinity was 56 Ru.
Substance 5mer-414 (KVRCK) has a Binding affinity of 71 Ru.
5mer-415 (KVFLR) was tested, and the Binding affinity was 77 Ru.
For 5mer-416 (KLYLR), the Binding affinity was 67 Ru.
5mer-417 (KWLQK) gave a Binding affinity of 65 Ru.
5mer-418 (RWRTR) showed a Binding affinity of 53 Ru.
5mer-419 (RVYTR) showed a Binding affinity of 67 Ru.
With 5mer-420 (KLFCR) the Binding affinity was 84 Ru.
In the case of 5mer-421 (RVVYK), the Binding affinity is reported as 68 Ru.
5mer-422 (KWICK) gave a Binding affinity of 87 Ru.
In the case of 5mer-423 (RRQLK), the Binding affinity is reported as 60 Ru.
With 5mer-424 (RVYLK) the Binding affinity was 87 Ru.
Substance 5mer-425 (RGFYR) has a Binding affinity of 80 Ru.
5mer-426 (RRVSR) was tested, and the Binding affinity was 57 Ru.
For 5mer-427 (RGLYR), the Binding affinity was 87 Ru.
5mer-428 (RQFLK) showed a Binding affinity of 86 Ru.
Work on 5mer-429 (KSQYK) yielded a Binding affinity of 63 Ru.
